Molecular target: the molecule itself
Experiment: SEC

B1: M tuberculosis MscL ion channel, wild type (natural protein)
chain: MLKGFKEFLARGNIVDLAVAVVIGTAFTALVTKFTDSIITPLINRIGVNAQSDVGILRIGIGGGQTIDLNVLLSAAINFFLIAFAVYFLVVLPYNTLRKKGEVEQPGDTQVVLLTEIRDLLAQTNGDSPGRHGGRGTPSPTDGPRASTESQ
notes: also called TbMscL; WT TbMscL
How did the “stoichiometry N” value turn out when B1 was run?
The value was 5.

Source: PMC9304679, “HDX-guided EPR spectroscopy to interrogate membrane protein dynamics” (STAR Protocols, 2022)
